According to the supplement of paper PMC10567573:

B1: SNAP91 (parent)
chain: FAQPMMRPPFGAAAVPGTQLSPSP

Variants of: B1
Experiment: protein stability index of a GFP-peptide fusion (GPS, HEK-293T) (PSI 1-6); higher = more stable
Conditions: c terminus: a fixed tail appended
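Note: lentivirally expressed fusions sorted by FACS into six bins by GFP to DsRed ratio, PSI derived from sequencing read proportions per bin multiplied by bin number.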

Compared with IAQPMMRPPFGAAAVPGTQLSPSP [F1I], SAQPMMRPPFGAAAVPGTQLSPSP [F1S] is higher in protein stability index: 4.02 for the first, 4.11 for the second.

Going from LAQPMMRPPFGAAAVPGTQLSPSP [F1L] to WAQPMMRPPFGAAAVPGTQLSPSP [F1W], the protein stability index falls from 3.59 to 3.41.

Compared with YAQPMMRPPFGAAAVPGTQLSPSP [F1Y], QAQPMMRPPFGAAAVPGTQLSPSP [F1Q] is higher in protein stability index: 2.24 for the first, 4.66 for the second.

First: PAQPMMRPPFGAAAVPGTQLSPSP [F1P]
Second: MAQPMMRPPFGAAAVPGTQLSPSP [F1M]
The protein stability index of the first is higher: 4.75 for the first, 4.26 for the second.

TAQPMMRPPFGAAAVPGTQLSPSP [F1T] and NAQPMMRPPFGAAAVPGTQLSPSP [F1N] are the same in protein stability index: 4.53 for the first, 4.53 for the second.

Compared with KAQPMMRPPFGAAAVPGTQLSPSP [F1K], HAQPMMRPPFGAAAVPGTQLSPSP [F1H] is lower in protein stability index: 4.28 for the first, 4.02 for the second.

Compared with VAQPMMRPPFGAAAVPGTQLSPSP [F1V], RAQPMMRPPFGAAAVPGTQLSPSP [F1R] is lower in protein stability index: 4.42 for the first, 4.19 for the second.

First: FAQPMMRTPFGAAAVPGTQLSPSP [P8T]
Second: FAQPMMRDPFGAAAVPGTQLSPSP [P8D]
The protein stability index of the first is lower: 3.02 for the first, 3.5 for the second.

Going from FAQPMMRIPFGAAAVPGTQLSPSP [P8I] to FAQPMMRGPFGAAAVPGTQLSPSP [P8G], the protein stability index rises from 2.49 to 2.97.

First: FAQPMMREPFGAAAVPGTQLSPSP [P8E]
Second: FAQPMMRLPFGAAAVPGTQLSPSP [P8L]
The protein stability index of the first is higher: 3.75 for the first, 2.87 for the second.

First: FAQPMMRRPFGAAAVPGTQLSPSP [P8R]
Second: FAQPMMRQPFGAAAVPGTQLSPSP [P8Q]
The protein stability index of the first is lower: 3.03 for the first, 3.36 for the second.

Going from FAQPMMRYPFGAAAVPGTQLSPSP [P8Y] to FAQPMMRAPFGAAAVPGTQLSPSP [P8A], the protein stability index rises from 2.79 to 3.82.

First: FAQPMMRWPFGAAAVPGTQLSPSP [P8W]
Second: FAQPMMRSPFGAAAVPGTQLSPSP [P8S]
The protein stability index of the first is lower: 2.64 for the first, 2.96 for the second.

Going from FAQPMMRMPFGAAAVPGTQLSPSP [P8M] to FAQPMMRVPFGAAAVPGTQLSPSP [P8V], the protein stability index rises from 3.01 to 3.11.

Going from FAQPMMRKPFGAAAVPGTQLSPSP [P8K] to FAQPMMRCPFGAAAVPGTQLSPSP [P8C], the protein stability index falls from 2.97 to 2.39.

First: FAQPMMRFPFGAAAVPGTQLSPSP [P8F]
Second: FAQPMMRNPFGAAAVPGTQLSPSP [P8N]
The protein stability index of the first is lower: 2.97 for the first, 2.98 for the second.

Going from FAQPMMRHPFGAAAVPGTQLSPSP [P8H] to FAQPTMRPPFGAAAVPGTQLSPSP [M5T], the protein stability index falls from 3.16 to 3.07.

First: FAQPQMRPPFGAAAVPGTQLSPSP [M5Q]
Second: FAQPEMRPPFGAAAVPGTQLSPSP [M5E]
The protein stability index of the first is lower: 3.48 for the first, 3.61 for the second.

Compared with FAQPWMRPPFGAAAVPGTQLSPSP [M5W], FAQPFMRPPFGAAAVPGTQLSPSP [M5F] is higher in protein stability index: 1.96 for the first, 2.54 for the second.

First: FAQPSMRPPFGAAAVPGTQLSPSP [M5S]
Second: FAQPYMRPPFGAAAVPGTQLSPSP [M5Y]
The protein stability index of the first is higher: 3.31 for the first, 2.64 for the second.

Going from FAQPKMRPPFGAAAVPGTQLSPSP [M5K] to FAQPVMRPPFGAAAVPGTQLSPSP [M5V], the protein stability index rises from 2.61 to 3.01.

First: FAQPCMRPPFGAAAVPGTQLSPSP [M5C]
Second: FAQPPMRPPFGAAAVPGTQLSPSP [M5P]
The protein stability index of the first is lower: 2.68 for the first, 4.01 for the second.

Compared with FAQPHMRPPFGAAAVPGTQLSPSP [M5H], FAQPDMRPPFGAAAVPGTQLSPSP [M5D] is higher in protein stability index: 2.86 for the first, 3.52 for the second.

Going from FAQPLMRPPFGAAAVPGTQLSPSP [M5L] to FAQPRMRPPFGAAAVPGTQLSPSP [M5R], the protein stability index rises from 3.4 to 4.15.

First: FAQPNMRPPFGAAAVPGTQLSPSP [M5N]
Second: FAQPAMRPPFGAAAVPGTQLSPSP [M5A]
The protein stability index of the first is lower: 3.22 for the first, 3.49 for the second.

Going from FAQPIMRPPFGAAAVPGTQLSPSP [M5I] to FAQPGMRPPFGAAAVPGTQLSPSP [M5G], the protein stability index rises from 2.59 to 2.77.

First: FAGPMMRPPFGAAAVPGTQLSPSP [Q3G]
Second: FALPMMRPPFGAAAVPGTQLSPSP [Q3L]
The protein stability index of the first is lower: 2.8 for the first, 3.01 for the second.

Going from FACPMMRPPFGAAAVPGTQLSPSP [Q3C] to FAFPMMRPPFGAAAVPGTQLSPSP [Q3F], the protein stability index rises from 2.58 to 3.04.

Compared with FAVPMMRPPFGAAAVPGTQLSPSP [Q3V], FAYPMMRPPFGAAAVPGTQLSPSP [Q3Y] is lower in protein stability index: 3.45 for the first, 1.82 for the second.

Going from FASPMMRPPFGAAAVPGTQLSPSP [Q3S] to FADPMMRPPFGAAAVPGTQLSPSP [Q3D], the protein stability index falls from 3.61 to 2.12.

Compared with FAHPMMRPPFGAAAVPGTQLSPSP [Q3H], FAWPMMRPPFGAAAVPGTQLSPSP [Q3W] is lower in protein stability index: 2.86 for the first, 2.32 for the second.

Compared with FATPMMRPPFGAAAVPGTQLSPSP [Q3T], FAAPMMRPPFGAAAVPGTQLSPSP [Q3A] is lower in protein stability index: 3.56 for the first, 3.3 for the second.

First: FARPMMRPPFGAAAVPGTQLSPSP [Q3R]
Second: FAMPMMRPPFGAAAVPGTQLSPSP [Q3M]
The protein stability index of the first is higher: 3.42 for the first, 2.93 for the second.

Compared with FAEPMMRPPFGAAAVPGTQLSPSP [Q3E], FANPMMRPPFGAAAVPGTQLSPSP [Q3N] is higher in protein stability index: 2.17 for the first, 2.98 for the second.

Compared with FAKPMMRPPFGAAAVPGTQLSPSP [Q3K], FAIPMMRPPFGAAAVPGTQLSPSP [Q3I] is lower in protein stability index: 3.32 for the first, 2.55 for the second.

Compared with FAQPMMRPHFGAAAVPGTQLSPSP [P9H], FAQPMMRPLFGAAAVPGTQLSPSP [P9L] is lower in protein stability index: 3.52 for the first, 1.91 for the second.

Going from FAQPMMRPSFGAAAVPGTQLSPSP [P9S] to FAQPMMRPTFGAAAVPGTQLSPSP [P9T], the protein stability index falls from 3.75 to 3.59.

First: FAQPMMRPIFGAAAVPGTQLSPSP [P9I]
Second: FAQPMMRPNFGAAAVPGTQLSPSP [P9N]
The protein stability index of the first is lower: 2.57 for the first, 3.14 for the second.

Going from FAQPMMRPAFGAAAVPGTQLSPSP [P9A] to FAQPMMRPWFGAAAVPGTQLSPSP [P9W], the protein stability index falls from 3.51 to 1.91.

Compared with FAQPMMRPEFGAAAVPGTQLSPSP [P9E], FAQPMMRPRFGAAAVPGTQLSPSP [P9R] is lower in protein stability index: 3.94 for the first, 3.77 for the second.

Going from FAQPMMRPKFGAAAVPGTQLSPSP [P9K] to FAQPMMRPDFGAAAVPGTQLSPSP [P9D], the protein stability index rises from 2.71 to 4.04.

First: FAQPMMRPQFGAAAVPGTQLSPSP [P9Q]
Second: FAQPMMRPMFGAAAVPGTQLSPSP [P9M]
The protein stability index of the first is higher: 3.91 for the first, 3.1 for the second.

Going from FAQPMMRPVFGAAAVPGTQLSPSP [P9V] to FAQPMMRPFFGAAAVPGTQLSPSP [P9F], the protein stability index falls from 3.26 to 1.63.

Compared with FAQPMMRPCFGAAAVPGTQLSPSP [P9C], FAQPMMRPYFGAAAVPGTQLSPSP [P9Y] is lower in protein stability index: 3.06 for the first, 2.34 for the second.

Compared with FAQPMMRPGFGAAAVPGTQLSPSP [P9G], FLQPMMRPPFGAAAVPGTQLSPSP [A2L] is lower in protein stability index: 3.45 for the first, 2.62 for the second.

Compared with FDQPMMRPPFGAAAVPGTQLSPSP [A2D], FVQPMMRPPFGAAAVPGTQLSPSP [A2V] is lower in protein stability index: 4.69 for the first, 1.71 for the second.

Going from FHQPMMRPPFGAAAVPGTQLSPSP [A2H] to FRQPMMRPPFGAAAVPGTQLSPSP [A2R], the protein stability index rises from 2.27 to 3.85.
